Source: patent US20170183639

System: YFP-CD2 (CD2 expressed in LLC-PK1 cells as a yellow fluorescent protein fused protein)

Src kinase of LLC-PK1 cells
basal Src activity measured as Y418 phosphorylation: CD2 expression does increase basal Src activity in this manner as compared with a control cell line
